From patent publication US20040022777A1, “Fragments and antagonists of heat shock protein 60” (priority 1999, published 2004)

What was measured:
Assay type in all cases: cell-based, mouse
[1] = tested on: bone marrow-derived macrophages of C3H/HeJ mice (mutant Toll-like receptor 4); experiment: NO (nitrite) production by bone marrow-derived macrophages with mutant Tlr4 (Griess reaction)
[2] = tested on: bone marrow-derived macrophages of C57BL/6 and C3H/HeN mice; experiment: NO (nitrite) production by bone marrow-derived macrophages with wild-type Tlr4 (Griess reaction); settings: 24 h
[3] = tested on: bone marrow-derived macrophages of C3H/HeJ mice (mutant Toll-like receptor 4); experiment: TNFα production by bone marrow-derived macrophages with mutant Tlr4 (sandwich ELISA)
[4] = tested on: bone marrow-derived macrophages of C57BL/6 and C3H/HeN mice; experiment: TNFα production by bone marrow-derived macrophages with wild-type Tlr4 (sandwich ELISA)

B1: hsp60: Recombinant human hsp60 obtained from StressGen Biotechnologies (protein)
chain: AKDVKFGADARALMLQGVDLLADAVAVTMGPKGRTVIIEQSWGSPKVTKDGVTVAKSIDLKDKYKNIGAKLVQDVANNTNEEAGDGTTTATVLARSIAKEGFEKISKGANPVEIRRGVMLAVDAVIAELKKQSKPVTTPEEIAQVATISANGDKEIGNIISDAMKKVGRKGVITVKDGKTLNDELEIIEGMKFDRGYISPYFINTSKGQKCEFQDAYVLLSEKKISSIQSIVPALEIANAHRKPLVIIAEDVDGEALSTLVLNRLKVGLQVVAVKAPGFGDNRKNQLKDMAIATGGAVFGEEGLTLNLEDVQPHDLGKVGEVIVTKDDAMLLKGKGDKAQIEKRIQEIIEQLDVTTSEYEKEKLNERLAKLSDGVAVLKVGGTSDVEVNEKKDRVTDALNATRAAVEEGIVLGGGCALLRCIPALDSLTPANEDQKIGIEIIKRTLKIPAMTIAKNAGVEGSLIVEKIMQSSSEVGYDAMAGDFVNMVEKGIIDPTKVVRTALLDAAGVASLLTTAEVVVTEIPKEEKDPGMGAMGGMGGGMGGGMF
NO production ([1]; C3H/HeJ (Tlr4 defective) macrophages, LPS 10 ng/ml, hsp60 10 μg/ml, 24 h): complete lack of a nitric oxide response | NO production, time course ([1]; C3H/HeJ macrophages, 10 μg/ml hsp60, up to 72 h): no indication of NO production | NO response on increasing the hsp60 concentration tenfold ([1]; Tlr4 defective macrophages, 24 h): completely refractory | hsp60 concentration required for eliciting NO [2]: 3 µg/mL | nitrite levels on increasing the hsp60 concentration tenfold ([2]; C3H/HeN macrophages): about five times higher nitrite levels | NO production ([2]; C57BL/6 and C3H/HeN macrophages, LPS 10 ng/ml, hsp60 10 μg/ml): same outcome | TNFα response ([3]; C3H/HeJ macrophages, LPS 10 ng/ml, hsp60 10 μg/ml, oligonucleotides 30 μg/ml, 6 h): no response | TNFα response, dose dependence ([3]; C3H/HeJ macrophages, even at ten times higher hsp60 levels, 6 h): no such response | TNFα production, time course ([3]; Tlr4 defective macrophages, 10 μg/ml hsp60, observation period of 72 h): absent | time of peak levels of secreted TNFα ([4]; C3H/HeN macrophages, 10 μg/ml hsp60): 6 to 12 h | TNFα secretion ([4]; C57BL/6 and C3H/HeN macrophages, LPS 10 ng/ml, hsp60 10 μg/ml, 6 h): rapid secretion of large amounts of TNFα
